Measurements published in patent US20260337278 (published 2026).
Positions count from the first letter of the chain named.

B1: SI-95X50 (antibody)
chain 1: not shown
chain 2: EIVLTQSPSTLSVSPGERATFSCRASQSIGTNIHWYQQKPGKPPRLLIKYASESISGIPDRFSGSGSGTEFTLTISSVQSEDFAVYYCQQNNNWPTTFGPGTKLTVLRTVAAPSVFIFPPSDEQLKSGTASVVCLLNNFYPREAKVQWKVDNALQSGNSQESVTEQDSKDSTYSLSSTLTLSKADYEKHKVYACEVTHQGLSSPVTKSFNRGEC
B2: SI-95X47 (antibody)
chain 1: not shown
chain 2: B1 chain 2
B3: SI-95X48 (antibody)
chain 1: not shown
chain 2: B1 chain 2
B4: SI-95X40 (antibody)
chain 1: not shown
chain 2: DIQMTQSPSSLSASVGDRVTITCRSSQNIVHSNGNTYLDWYQQTPGKAPKLLIYKVSNRFSGVPSRFSGSGSGTDFTFTISSLQPEDIATYYCFQYSHVPWTFGQGTKLQITRTVAAPSVFIFPPSDEQLKSGTASVVCLLNNFYPREAKVQWKVDNALQSGNSQESVTEQDSKDSTYSLSSTLTLSKADYEKHKVYACEVTHQGLSSPVTKSFNRGEC
B5: SI-95X56 (antibody)
chain 1: not shown
chain 2: DIVMTQSPSSVSLSLGDRVTITCHSSQDINSNIGWLQQKPGKAFKGLIYHGTNLDDGVPSRFSGSGSGADYTLTISSLQAEDFATYYCVQYAQFPWTFGPGTKLEIKRTVAAPSVFIFPPSDEQLKSGTASVVCLLNNFYPREAKVQWKVDNALQSGNSQESVTEQDSKDSTYSLSSTLTLSKADYEKHKVYACEVTHQGLSSPVTKSFNRGEC
B6: SI-95X53 (antibody)
chain 1: not shown
chain 2: B5 chain 2
B7: SI-95X52 (antibody)
chain 1: not shown
chain 2: B5 chain 2
B8: SI-95X54 (antibody)
chain 1: not shown
chain 2: B5 chain 2
B9: SI-95X58 (antibody)
chain 1: not shown
chain 2: EIVLTQSPSTLSVSPGERATFSCRASQSIGTNIHWYQQKPGKPPRLLIKYASESISGIPDRFSGSGSGTEFTLTISSVQSEDFAVYYCQQNNNWPTTFGPGTKLTVLRTVAAPSVFIFPPSDEQLKSGTASVVCLLNNFYPREAKVQWKVDNALQSGNSQESVTEQDSKDSTYSLSSTLTLSKADYEKHKVYACEVTHQGLSSPVTKSFNRGECGGGGSGGGGGSGGGGSGGGGSQVQLQESGPSLVKPSQTLSLTCTVSGYSITSDFAWNWIRQFPGRKLEWMGYISYSGNTRYNPSLKSRFTISRDTSKNQFYLKLRSVTIADTAVYYCVTAGRGFPYWGQGTLVTVSSGGGGSGGGGSGGGGSDIVMTQSPSSVSLSLGDRVTITCHSSQDINSNIGWLQQKPGKAFKGLIYHGTNLDDGVPSRFSGSGSGADYTLTISSLQAEDFATYYCVQYAQFPWTFGPGTKLEIK
B10: SI-95X59 (antibody)
chain 1: not shown
chain 2: B9 chain 2
B11: SI-95X61 (antibody)
chain 1: not shown
chain 2: B9 chain 2
B12: SI-95X62 (antibody)
chain 1: not shown
chain 2: B9 chain 2 with N92F
B13: SI-95X60 (antibody)
chain 1: not shown
chain 2: B9 chain 2
B14: SI-95X57 (antibody)
chain 1: not shown
chain 2: B9 chain 2
B15: SI-95X65 (antibody)
chain 1: not shown
chain 2: DILMTQSPSSMSVSLGDTVSITCHSSQDINSNIGWLQQRPGKSFKGLIYHGTNLDDEVPSRFSGSGSGADYSLTISSLESEDFADYYCVQYAQFPWTFGGGTKLEIKRTVAAPSVFIFPPSDEQLKSGTASVVCLLNNFYPREAKVQWKVDNALQSGNSQESVTEQDSKDSTYSLSSTLTLSKADYEKHKVYACEVTHQGLSSPVTKSFNRGEC
B16: SI-95X67 (antibody)
chain 1: not shown
chain 2: B15 chain 2
B17: SI-95X66 (antibody)
chain 1: not shown
chain 2: B15 chain 2
B18: SI-95X30 (antibody)
chain 1: not shown
chain 2: DIQMTQSPSSLSASVGDRVTITCRSSQNIVHSNGNTYLDWYQQTPGKAPKLLIYKVSNRFSGVPSRFSGSGSGTDFTFTISSLQPEDIATYYCFQYSHVPWTFGQGTKLQITRTVAAPSVFIFPPSDEQLKSGTASVVCLLNNFYPREAKVQWKVDNALQSGNSQESVTEQDSKDSTYSLSSTLTLSKADYEKHKVYACEVTHQGLSSPVTKSFNRGECGGGGSGSGSGGGGGSGGGGSGGGGSDVQLQESGPSLVKPSQSLSLTCTVTGYSITSDFAWNWIRQFPGNKLEWMGYISYSGNTRYNPSLKSRISITRDTSKNQFFLQLNSVTIEDTATYYCVTAGRGFPYWGQGTLVTVSAGGGGSGGGGSGGGGSDILMTQSPSSMSVSLGDTVSITCHSSQDINSNIGWLQQRPGKSFKGLIYHGTNLDDEVPSRFSGSGSGADYSLTISSLESEDFADYYCVQYAQFPWTFGGGTKLEIK
B19: SI-95X27 (antibody)
chain 1: not shown
chain 2: DILMTQSPSSMSVSLGDTVSITCHSSQDINSNIGWLQQRPGKSFKGLIYHGTNLDDEVPSRFSGSGSGADYSLTISSLESEDFADYYCVQYAQFPWTFGGGTKLEIKGGGGSGGGGSGGGGSDVQLQESGPSLVKPSQSLSLTCTVTGYSITSDFAWNWIRQFPGNKLEWMGYISYSGNTRYNPSLKSRISITRDTSKNQFFLQLNSVTIEDTATYYCVTAGRGFPYWGQGTLVTVSAGGGGSGSGSGGGGGSGGGGSGGGGSDIQMTQSPSSLSASVGDRVTITCRSSQNIVHSNGNTYLDWYQQTPGKAPKLLIYKVSNRFSGVPSRFSGSGSGTDFTFTISSLQPEDIATYYCFQYSHVPWTFGQGTKLQITRTVAAPSVFIFPPSDEQLKSGTASVVCLLNNFYPREAKVQWKVDNALQSGNSQESVTEQDSKDSTYSLSSTLTLSKADYEKHKVYACEVTHQGLSSPVTKSFNRGEC

biological target: T1, EGFR (wild-type, His-tagged or biotinylated) (human, UniProt P00533); experiment: BLI

Kd [nM] | Binder
1.38 | B1
20.6 | B2
25.5 | B3
0.954 | B4
6.88 | B5
18.2 | B6
19.3 | B7
25.7 | B8
16 | B9
23.6 | B10
4.89 | B11
8.16 | B12
4.98 | B13
0.768 | B14
3.07 | B15
7.06 | B16
4.65 | B17

biological target: T2, EGFRvIII (human, UniProt P00533); experiment: BLI

Kd [nM] | Binder
1.24 | B18
0.507 | B19

biological target: T1, EGFR (wild-type, His-tagged or …); experiment: BLI; remark: another data set of the same source

Kd [nM] | Binder
8.84 | B18
10.7 | B19

biological target: T2, EGFRvIII; experiment: BLI; remark: another data set of the same source

Kd [nM] | Binder
0.207 | B1
0.272 | B2
0.404 | B3
1.16 | B4
1.93 | B5
1.28 | B6
1.47 | B7
1.37 | B8
0.807 | B9
1.03 | B10
0.573 | B11
1.02 | B12
1.95 | B13
0.549 | B14
0.804 | B15
1.24 | B16
0.576 | B17
